“And” between values parts separate entries of the source, which are not always exact repeats. Equal values may be shown once.

The test concerns the target 1-Aminocyclopropane-1-carboxylic acid (ACC) oxidase ACCO1 from apple (Malus domestica), His-Tag fusion protein (apple (Malus domestica)). Briefly: SEC; Sephadex G-200 column chromatography; activity of the monomer, dimer and tetramer forms; data not shown. On the technique in general: In gel filtration, larger molecules generally elute earlier.

On to “1-Aminocyclopropane-1-carboxylic acid (ACC) oxidase ACCO1 from apple (Malus domestica), His-Tag fusion protein (enzyme)”, for which the stoichiometry N (in general, a count of units in the complex or per binding partner) was 2 and 4.

These data come from article PMC3828642, “1-Aminocyclopropane-1-carboxylic acid oxidase reaction mechanism and putative post-translational activities of the ACCO protein” (AoB Plants, 2013).
